Test results reported in article PMC13290226, “Intraflagellar transport protein IFT172 contains a C-terminal ubiquitin-binding U-box-like domain involved in ciliary signaling” (eLife, 2026).

Experiments:
Assay in all cases: pull-down; GST-tagged HsIFT172 constructs (10 μM; 5 μM in Figure 4C) immobilised on GSH beads; prey 20 μM UbcH5a~Ub or 15-25 μM tetra-ubiquitin in 50 mM Tris pH 7.5, 100 mM NaCl, 1 mM DTT, 4 °C, 2 hr; eluted with glutathione; Coomassie and anti-ubiquitin western blot
Details in all cases: both partners purified
[1] = target: T1, UbcH5a_(C85S)~Ub conjugate, UbcH5a F62A (human, UniProt P51668 1-147; P0CG48 1-76, C85S | F62A, oxyester link from Ser85 (C85S) to ubiquitin | oxyester-linked to UbcH5a Ser85)
T1 construct: Homo sapiens UbcH5a, full length, C85S and F62A; Homo sapiens ubiquitin; source: in vitro charging reaction of proteins purified from E. coli, purified

[2] = target: T2, UbcH5a_(C85S)~Ub conjugate (WT) (human, UniProt P51668 1-147; P0CG48 1-76, C85S, oxyester link from Ser85 (C85S) to ubiquitin | oxyester-linked to UbcH5a Ser85)
T2 construct: Homo sapiens UbcH5a (E2 enzyme), full length, active site cysteine mutated to serine; Homo sapiens ubiquitin; Protocol adapted from Middleton et al., 2014; also called WT UbcH5a~Ub conjugate; E2~Ub conjugate

[3] = target: T3, UbcH5a_(C85S)~Ub conjugate, UbcH5a A96D (human, UniProt P51668 1-147; P0CG48 1-76, C85S | A96D, oxyester link from Ser85 (C85S) to ubiquitin | oxyester-linked to UbcH5a Ser85)
T3 construct: Homo sapiens UbcH5a, full length, C85S and A96D; Homo sapiens ubiquitin; source: in vitro charging reaction of proteins purified from E. coli, purified

binding result [1]: binds
binding result [2]: binds
binding result [3]: binds
B1: GST-tagged HsIFT172C2 (His-GST-TEV-HsIFT172_(1470-C)) (domain or fragment, human, UniProt Q9UG01 1470-1749, looked up)
chain: GAPANPQNFNIYKRIFTDMVSSPGTNCAEAYHSWADLRDVLFNLCENLVKSSEANSPAHEEFKTMLLIAHYYATRSAAQSVKQLETVAARLSVSLLRHTQLLPVDKAFYEAGIAAKAVGWDNMAFIFLNRFLDLTDAIEEGTLDGLDHSDFQDTDIPFEVPLPAKQHVPEAEREEVRDWVLTVSMDQRLEQVLPRDERGAYEASLVAASTGVRALPCLITGYPILRNKIEFKRPGKAANKDNWNKFLMAIKTSHSPVCQDVLKFISQWCGGLPSTSFSFQ
notes: also called GST-HsIFT172C2; source: E. coli BL21 (DE3), purified (Ni-NTA, Q anion exchange, SEC); not shown: GST, N-terminal, kept
